The chains are these.
B1: MTSP-1 I41R/F97W/F99L/C122S/G151N/Q192G (enzyme)
chain: VVGGTDADEGEWPWQVSLHALGQGHRCGASLISPNWLVSAAHCYIDDRGFRYSDPTQWTAFLGLHDQSQRSAPGVQERRLKRIISHPFFNDWTLDYDIALLELEKPAEYSSMVRPISLPDASHVFPAGKAIWVTGWGHTQYGGTNALILQKGEIRVINQTTCENLLPQQITPRMMCVGFLSGGVDSCGGDSGGPLSSVEADGRIFQAGVVSWGDGCAQRNKPGVYTRLPLFRDWIKENTGV
B2: MTSP-1 D96V/ins97aE/F97T/T98G/F99L/C122S/Q175L/Q192D (enzyme)
chain: VVGGTDADEGEWPWQVSLHALGQGHICGASLISPNWLVSAAHCYIDDRGFRYSDPTQWTAFLGLHDQSQRSAPGVQERRLKRIISHPFFNVTEGLDYDIALLELEKPAEYSSMVRPISLPDASHVFPAGKAIWVTGWGHTQYGGTGALILQKGEIRVINQTTCENLLPQLITPRMMCVGFLSGGVDSCDGDSGGPLSSVEADGRIFQAGVVSWGDGCAQRNKPGVYTRLPLFRDWIKENTGV
B3: MTSP-1 I41R/Y59F/ins97aE/F97T/T98G/F99L/C122S/Q175L/Q192D (enzyme)
chain: VVGGTDADEGEWPWQVSLHALGQGHRCGASLISPNWLVSAAHCFIDDRGFRYSDPTQWTAFLGLHDQSQRSAPGVQERRLKRIISHPFFNDTEGLDYDIALLELEKPAEYSSMVRPISLPDASHVFPAGKAIWVTGWGHTQYGGTGALILQKGEIRVINQTTCENLLPQLITPRMMCVGFLSGGVDSCDGDSGGPLSSVEADGRIFQAGVVSWGDGCAQRNKPGVYTRLPLFRDWIKENTGV
B4: MTSP-1 ins97aE/F97T/T98G/F99L/C122S/I136M/L155M/N170D/Q175L/Q192E (enzyme)
chain: VVGGTDADEGEWPWQVSLHALGQGHICGASLISPNWLVSAAHCYIDDRGFRYSDPTQWTAFLGLHDQSQRSAPGVQERRLKRIISHPFFNDTEGLDYDIALLELEKPAEYSSMVRPISLPDASHVFPAGKAMWVTGWGHTQYGGTGALIMQKGEIRVINQTTCEDLLPQLITPRMMCVGFLSGGVDSCEGDSGGPLSSVEADGRIFQAGVVSWGDGCAQRNKPGVYTRLPLFRDWIKENTGV
B5: MTSP-1 Y59F/ins97aE/F97T/T98G/F99L/C122S/L153Q/Q175L/Q192E (enzyme)
chain: VVGGTDADEGEWPWQVSLHALGQGHICGASLISPNWLVSAAHCFIDDRGFRYSDPTQWTAFLGLHDQSQRSAPGVQERRLKRIISHPFFNDTEGLDYDIALLELEKPAEYSSMVRPISLPDASHVFPAGKAIWVTGWGHTQYGGTGAQILQKGEIRVINQTTCENLLPQLITPRMMCVGFLSGGVDSCEGDSGGPLSSVEADGRIFQAGVVSWGDGCAQRNKPGVYTRLPLFRDWIKENTGV
B6: MTSP-1 I41R/ins97aE/F97T/T98G/F99L/C122S/G151S/Q175L/Q192E (enzyme)
chain: VVGGTDADEGEWPWQVSLHALGQGHRCGASLISPNWLVSAAHCYIDDRGFRYSDPTQWTAFLGLHDQSQRSAPGVQERRLKRIISHPFFNDTEGLDYDIALLELEKPAEYSSMVRPISLPDASHVFPAGKAIWVTGWGHTQYGGTSALILQKGEIRVINQTTCENLLPQLITPRMMCVGFLSGGVDSCEGDSGGPLSSVEADGRIFQAGVVSWGDGCAQRNKPGVYTRLPLFRDWIKENTGV
B7: MTSP-1 I41R/Y59F/G60dS/R84H/ins97aE/F97T/T98G/F99L/C122S/Q175L/Q192E/V212I (enzyme)
chain: VVGGTDADEGEWPWQVSLHALGQGHRCGASLISPNWLVSAAHCFIDDRSFRYSDPTQWTAFLGLHDQSQRSAPGVQERHLKRIISHPFFNDTEGLDYDIALLELEKPAEYSSMVRPISLPDASHVFPAGKAIWVTGWGHTQYGGTGALILQKGEIRVINQTTCENLLPQLITPRMMCVGFLSGGVDSCEGDSGGPLSSVEADGRIFQAGIVSWGDGCAQRNKPGVYTRLPLFRDWIKENTGV
B8: MTSP-1 E24K/ins97aE/F97T/T98G/F99L/C122S/A152S/Q175L/Q192D (enzyme)
chain: VVGGTDADKGEWPWQVSLHALGQGHICGASLISPNWLVSAAHCYIDDRGFRYSDPTQWTAFLGLHDQSQRSAPGVQERRLKRIISHPFFNDTEGLDYDIALLELEKPAEYSSMVRPISLPDASHVFPAGKAIWVTGWGHTQYGGTGSLILQKGEIRVINQTTCENLLPQLITPRMMCVGFLSGGVDSCDGDSGGPLSSVEADGRIFQAGVVSWGDGCAQRNKPGVYTRLPLFRDWIKENTGV
B9: MTSP-1 F97D/ins97aV/T98P/F99L/C122S/G151N/Q192G (enzyme)
chain: VVGGTDADEGEWPWQVSLHALGQGHICGASLISPNWLVSAAHCYIDDRGFRYSDPTQWTAFLGLHDQSQRSAPGVQERRLKRIISHPFFNDDVPLDYDIALLELEKPAEYSSMVRPISLPDASHVFPAGKAIWVTGWGHTQYGGTNALILQKGEIRVINQTTCENLLPQQITPRMMCVGFLSGGVDSCGGDSGGPLSSVEADGRIFQAGVVSWGDGCAQRNKPGVYTRLPLFRDWIKENTGV
B10: MTSP-1 I41R/Y59F/ins97aE/F97T/T98G/F99L/C122S/L153Q/Q175L/Q192E (enzyme)
chain: VVGGTDADEGEWPWQVSLHALGQGHRCGASLISPNWLVSAAHCFIDDRGFRYSDPTQWTAFLGLHDQSQRSAPGVQERRLKRIISHPFFNDTEGLDYDIALLELEKPAEYSSMVRPISLPDASHVFPAGKAIWVTGWGHTQYGGTGAQILQKGEIRVINQTTCENLLPQLITPRMMCVGFLSGGVDSCEGDSGGPLSSVEADGRIFQAGVVSWGDGCAQRNKPGVYTRLPLFRDWIKENTGV
B11: MTSP-1 ins97aE/F97T/T98G/F99L/C122S/L153Q/Q175L/Q192D (enzyme)
chain: VVGGTDADEGEWPWQVSLHALGQGHICGASLISPNWLVSAAHCYIDDRGFRYSDPTQWTAFLGLHDQSQRSAPGVQERRLKRIISHPFFNDTEGLDYDIALLELEKPAEYSSMVRPISLPDASHVFPAGKAIWVTGWGHTQYGGTGAQILQKGEIRVINQTTCENLLPQLITPRMMCVGFLSGGVDSCDGDSGGPLSSVEADGRIFQAGVVSWGDGCAQRNKPGVYTRLPLFRDWIKENTGV
B12: MTSP-1 Y59F/F97T/ins97aE/T98G/F99L/C122S/Q175L/Q192D (enzyme)
chain: VVGGTDADEGEWPWQVSLHALGQGHICGASLISPNWLVSAAHCFIDDRGFRYSDPTQWTAFLGLHDQSQRSAPGVQERRLKRIISHPFFNDTEGLDYDIALLELEKPAEYSSMVRPISLPDASHVFPAGKAIWVTGWGHTQYGGTGALILQKGEIRVINQTTCENLLPQLITPRMMCVGFLSGGVDSCDGDSGGPLSSVEADGRIFQAGVVSWGDGCAQRNKPGVYTRLPLFRDWIKENTGV
B13: MTSP-1 Y59F/G60dS/R84H/ins97aE/F97T/T98G/F99L/C122S/Q175L/Q192E/V212I (enzyme)
chain: VVGGTDADEGEWPWQVSLHALGQGHICGASLISPNWLVSAAHCFIDDRSFRYSDPTQWTAFLGLHDQSQRSAPGVQERHLKRIISHPFFNDTEGLDYDIALLELEKPAEYSSMVRPISLPDASHVFPAGKAIWVTGWGHTQYGGTGALILQKGEIRVINQTTCENLLPQLITPRMMCVGFLSGGVDSCEGDSGGPLSSVEADGRIFQAGIVSWGDGCAQRNKPGVYTRLPLFRDWIKENTGV
B14: MTSP-1 I41R/ins97aE/F97T/T98G/F99L/A112V/C122S/Q175L/Q192E (enzyme)
chain: VVGGTDADEGEWPWQVSLHALGQGHRCGASLISPNWLVSAAHCYIDDRGFRYSDPTQWTAFLGLHDQSQRSAPGVQERRLKRIISHPFFNDTEGLDYDIALLELEKPVEYSSMVRPISLPDASHVFPAGKAIWVTGWGHTQYGGTGALILQKGEIRVINQTTCENLLPQLITPRMMCVGFLSGGVDSCEGDSGGPLSSVEADGRIFQAGVVSWGDGCAQRNKPGVYTRLPLFRDWIKENTGV

The target of the experiment is plasma purified human complement protein C3 (human) (UniProt P01024). The experiment in a line: cell-based or functional assay.
Sequence of plasma purified human complement protein C3 (human) (P01024 23-667, chain 1 of 2): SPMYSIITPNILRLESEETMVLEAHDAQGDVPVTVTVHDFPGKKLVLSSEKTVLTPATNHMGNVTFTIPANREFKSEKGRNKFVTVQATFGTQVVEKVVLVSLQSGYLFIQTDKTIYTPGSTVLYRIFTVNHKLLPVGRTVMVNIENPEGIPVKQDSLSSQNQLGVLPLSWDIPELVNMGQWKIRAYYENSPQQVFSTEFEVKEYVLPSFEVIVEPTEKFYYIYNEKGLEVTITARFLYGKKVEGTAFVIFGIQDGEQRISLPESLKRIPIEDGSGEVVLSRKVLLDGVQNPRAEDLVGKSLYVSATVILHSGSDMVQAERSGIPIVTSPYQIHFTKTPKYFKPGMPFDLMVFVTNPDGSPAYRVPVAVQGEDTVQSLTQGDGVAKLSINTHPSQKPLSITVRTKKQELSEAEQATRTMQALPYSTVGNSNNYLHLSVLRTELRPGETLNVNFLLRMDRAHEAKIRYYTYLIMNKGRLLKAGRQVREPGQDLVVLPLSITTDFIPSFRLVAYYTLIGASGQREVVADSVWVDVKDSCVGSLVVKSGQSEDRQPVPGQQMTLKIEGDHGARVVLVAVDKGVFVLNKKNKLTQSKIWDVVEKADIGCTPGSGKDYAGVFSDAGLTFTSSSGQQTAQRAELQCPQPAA
Sequence of plasma purified human complement protein C3 (human) (P01024 672-1663, chain 2 of 2): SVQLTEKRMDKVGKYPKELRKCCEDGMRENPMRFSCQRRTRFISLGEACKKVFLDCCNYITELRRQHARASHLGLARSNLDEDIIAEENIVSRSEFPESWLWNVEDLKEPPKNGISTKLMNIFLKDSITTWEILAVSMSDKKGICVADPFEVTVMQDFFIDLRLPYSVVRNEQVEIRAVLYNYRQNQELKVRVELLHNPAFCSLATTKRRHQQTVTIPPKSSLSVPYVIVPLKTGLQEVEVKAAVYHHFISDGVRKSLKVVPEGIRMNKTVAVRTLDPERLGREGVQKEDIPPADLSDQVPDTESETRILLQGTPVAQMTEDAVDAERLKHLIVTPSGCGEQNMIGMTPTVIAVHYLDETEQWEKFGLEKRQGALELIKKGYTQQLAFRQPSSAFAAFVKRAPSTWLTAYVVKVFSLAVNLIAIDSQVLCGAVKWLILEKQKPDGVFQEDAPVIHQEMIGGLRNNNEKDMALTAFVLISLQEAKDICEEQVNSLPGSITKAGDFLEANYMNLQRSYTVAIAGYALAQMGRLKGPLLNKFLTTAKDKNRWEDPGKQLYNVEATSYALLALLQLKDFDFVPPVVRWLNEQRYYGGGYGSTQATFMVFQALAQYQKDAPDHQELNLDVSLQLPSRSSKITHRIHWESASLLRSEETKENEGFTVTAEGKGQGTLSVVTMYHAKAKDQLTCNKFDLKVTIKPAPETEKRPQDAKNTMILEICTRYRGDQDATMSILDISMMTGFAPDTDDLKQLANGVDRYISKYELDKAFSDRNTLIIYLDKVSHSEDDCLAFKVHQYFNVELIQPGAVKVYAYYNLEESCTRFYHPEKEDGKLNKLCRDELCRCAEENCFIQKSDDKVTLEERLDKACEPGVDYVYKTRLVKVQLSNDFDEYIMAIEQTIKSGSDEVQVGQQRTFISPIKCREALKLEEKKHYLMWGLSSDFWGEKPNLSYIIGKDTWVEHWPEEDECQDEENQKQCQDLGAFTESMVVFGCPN
B1: the EC50 of hC3 cleavage came to 97.3 nM.
With B2 the figure was 258 nM; with B3, 288 nM.
With B4 the figure was 429 nM; with B5, 237 nM.
The same measure for B6: 274 nM; for B7: 143 nM.
B8 showed an EC50 of hC3 cleavage of 291 nM.
The same measure for B9: 87 nM; for B10: 253 nM.
For the molecule B11, the EC50 of hC3 cleavage came to 332 nM.
With B12 the figure was 289 nM.
With B13 the figure was 102 nM; with B14, 288 nM.

The record behind these values is patent US20240018502A1.
